{
  "source": "paper PMC4204924",
  "biological_target": "thrombin (UniProt P00734;P00734 328-363;364-622)",
  "test": "competition",
  "data": [
    {"binder": "GGTTGGTGTGGTTGGTTT (structured_DNA)", "note": "[thrombin aptamer (TA)]", "values": [
      {"measurement": "binding result", "value": "binds"}
    ]}
  ]
}
